Test results: US20210324374

Molecular target: Insulin (UniProt P01308+P01308)
Experiment: flow
Settings: dT replaced by C8-alkyne-dU clicked with phenylalanine azide (positions incorporated by polymerase); bead-based assay, buffer

Insulin, sequence (P01308 25-54, chain 1 of 2): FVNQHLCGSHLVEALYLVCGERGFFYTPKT
Insulin, sequence (P01308 90-110, chain 2 of 2): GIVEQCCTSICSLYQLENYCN

GCGCATACCAGCTTATTCAATCGTCGAGAACTCCTCCGGCTCTAACTCCGATTATAGCCAAAGATAGTAAGTGCAATCTCGGC [Ins24]
Kd: 2560 nM
